From patent publication US4746508A, “Drug administration” (Beth Israel Hospital Assn., priority 1984, dated 1988)

Experiments:
[1] = HPLC k' factor value (hydrophobicity) of unconjugated steroid; type: physicochemical; details: octadecylsilane column, 75% methanol in water, apparent pH 5.0
Procedure: Preferably the steroid used in the invention is characterized in that the unconjugated derivative of the steroid is retained on a hydrophobic column for a length of time sufficient to produce a k' factor value of at least about 4, the k' factor value being obtained by subjecting a monomeric solution of 1 mg/ml of such steroid derivative to high-performance liquid column chromatography at 3,000 psi, using a 250×4.6 mm column having octadecylsilane-coated 5 μm silica particles as the stationary phase and a mobile phase, delivered at 1.0 ml/min., consisting of 75% methanol in ater, v/v, buffered with 0.005M KH2 PO4 /H3 PO4 to give an apparent pH value, as measured using a glass electrode, of 5.0, the k' factor value being defined by [formula] where t0 is the retention time in the column of the solvent front and tr is the retention time in the column of the steroid derivative as measured by obtaining the elution profile of the steroid derivative by absorbance at 210 nm.
The structure of the steroid molecule affects its chemical properties and thus its functioning as a drug transporting molecule. We believe that all of the steroid molecules used in the invention facilitate transport by self-associating to form reversed micelles within the membrane across which the drug is being transported; these reversed micelles, it is believed, function as pores, allowing the drug to pass through. A measure of a given steroid molecule's ability to form such reversed micelles is the hydrophobicity of the unconjugated form of the molecule, a property which can be quantified using the k' factor value, which is computed by observing the steroid's retention time in a high-performance liquid chromatography (HPLC) column under the conditions described above. As mentioned above, the k' value of the unconjugated derivative of the steroid should be at least about 4 for the steroid to be suitable in the therapeutic compositions of the invention.
The k' and CMT of the steroids used in the compositions of the invention are influenced by whether the steroid is conjugated at C21 and, if so, by the nature of the conjugating group. Additionally, a polar group at position 16 is essential for solubility (See position E on formula 1). Because the k' factor value is influenced by the polarity of any conjugating group, unconjugated derivatives must be used in numerical comparisons involving steroids which are conjugated with different groups, or comparisons involving both conjugated and unconjugated steroids. Overall hydrophobicity and k' factor value generally decrease as the polarity of the conjugating group increases. However, such decrease is not a reflection of the hydrophobicity of the steroid nucleus. […]

[2] = Intranasal administration of proinsulin to sheep (insulin RIA adjusted for cross-reactivity); type: in vivo; details: for Proinsulin (μU/ml above baseline): Sheep 196 Study 25, 1.5 mg into each nostril
Procedure: Commercially available proinsulin (Eli Lilly & Co., Indianapolis, Ind.) was mixed with the sodium tauro-24,25-dihydrofusidate solution or in 0.15M NaCl, pH 7.6 to give a final concentration of 6 mg/ml of proinsulin and 1% (w/v) sodium tauro-24,25-dihydrofusidate. Sheep were administered by nasal drops 1.5 mg (250 μl) of the solution into each nostril at time 0. Sheep 25 was administered proinsulin without adjuvant as described above.

[3] = in vivo
Procedure: Corticotropin releasing-factor (CRF, a hormone of MW 4,000) (Dr. George Chrousos, National Institute of Health, Bethesda, MD) was dissolved in 0.15 NaCl and mixed with the 2% solution of sodium tauro-24,25-dihydrofusidate. CRF was also prepared without adjuvant. Two sheep were administered 350 mg ketamine intravenously and a total of 460 μg of CRF as a liquid, by drops into each side of the nose of the sheep at time 0. The dose of CRF was approximately 10 μg/kg body weight.

With CC(=O)O[C@H]1C[C@@]2(C)[C@@H](C[C@@H](O)[C@H]3[C@@]4(C)CC[C@@H](O)[C@@H](C)[C@@H]4CC[C@@]32C)/C1=C(\CCCC(C)C)C(=O)O [24,25-dihydrofusidic acid] the “k' factor value” [1] was 27.1.
For CC(=O)O[C@H]1C[C@@]2(C)[C@@H](C[C@@H](O)[C@H]3[C@@]4(C)CC[C@@H](O)[C@@H](C)[C@@H]4CC[C@@]32C)/C1=C(\CCC=C(C)C)C(=O)O [fusidic acid, reference compound], the “k' factor value” [1] was 20.7.
With CC(=O)OC1CC2(C)C(CC(O)C3C4(C)CCC(OC(C)=O)C(C)C4CCC32C)C1=C(CCC=C(C)C)C(=O)O (stereo not drawn) [3-acetoxyl-fusidic acid] the “k' factor value” [1] was 26.4.
In the case of “Proinsulin without sodium tauro-24,25-dihydrofusidate: commercially available proinsulin (Eli Lilly) in 0.15M NaCl, pH 7.6, without adjuvant”, the “Proinsulin (μU/ml above baseline)” value ([2]; 0 min) is reported as 0 μU/ml, the “Proinsulin (μU/ml above baseline)” value ([2]; 10 min) is reported as 2.8 μU/ml and the “Proinsulin (μU/ml above baseline)” value ([2]; 15 min) is reported as 28 μU/ml. The “Proinsulin (μU/ml above baseline)” value ([2]; 20 min) was 56 μU/ml, the “Proinsulin (μU/ml above baseline)” value ([2]; 30 min) was 22 μU/ml and the “Proinsulin (μU/ml above baseline)” value ([2]; 60 min) was 0 μU/ml. For the same compound, the “Proinsulin (μU/ml above baseline)” value ([2]; 90 min) was 0 μU/ml, the “Proinsulin (μU/ml above baseline)” value ([2]; 120 min) was 0 μU/ml and the “Proinsulin (μU/ml above baseline)” value ([2]; 180 min) was 0 μU/ml. The “Proinsulin (μU/ml above baseline)” value ([2]; 240 min) was 2.8 μU/ml, the “Proinsulin (μU/ml above baseline)” value ([2]; +5 min) was 0 μU/ml and the “Proinsulin (μU/ml above baseline)” value ([2]; -15 min) was 0 μU/ml. For the same compound, the “absorption of nasally administered proinsulin” value ([2]; sheep, nasal drops) was “absorbed at a slower rate and to a much reduced extent”.
In the case of CC(=O)O[C@@H]1[C@H]2[C@H](C)[C@H](O)CC[C@]2(C)[C@@H]2CC[C@H]3/C(=C(\CCC=C(C)C)C(=O)O)[C@@H](OC(C)=O)C[C@]3(C)[C@@]2(C)[C@H]1O [cephalosporin P1], the “k' factor value” [1] is reported as 9.5.
With “Corticotropin releasing-factor without tauro-24,25-dihydrofusidate: corticotropin releasing-factor, a hormone of MW 4,000, prepared without adjuvant” the “increase of CRF level” value [3] was “increased only slightly”.
